Laboratory results reported in patent US20070185028A1, “Compositions and methods for treatment of protein misfolding and protein aggregation diseases” (priority 2004, published 2007).
No end group written: not given here.

Legend:
[1] = as provided by manufacturer (Mimotopes); cited from earlier work
beta amyloid = beta amyloid (Homo sapiens, UniProt P05067); assay: αB crystallin protein pin array, binding of beta amyloid; details: immobilized 8-mer peptide; absorption at 450 nm
From the text: αB Crystallin peptides that bind the target protein beta-amyloid were identified by screening an αB crystallin protein pin array, which provides a systematic method for evaluating interactions between peptides corresponding to residues 1-175 of human αB crystallin and selected target proteins in a parallel and simultaneous manner.
Peptides were synthesized on derivatized polyethylene pins arranged in a microtiter plate format. Each peptide was 8 amino acids in length and consecutive peptides were offset by 2 amino acids. All peptides were covalently bonded to the surface plastic pins. The first immobilized peptide was 1MDIAIHHP8 and the last peptide was 168PAVTAAPK175 for the human αB crystallin.
After synthesis, the pins were pre-coated at room temperature with 2% Bovine Serum Albumin (BSA), 0.1% Tween-20 and 0.1% Sodium azide in 10 mM phosphate buffered saline pH 7.2 (PBS) for 1 hr, and washed three times for 10 mins each with 10 mM PBS. To screen for binding to the peptides, fixed concentrations of the target protein beta amyloid was dissolved in 10 mM PBS, containing 0.05% Tween-20, added to each well and incubated for 1 hr at room temperature. The pin array was washed three times for 10 mins each with 10 mM PBS, containing 0.05% Tween-20. Monoclonal or polyclonal primary antibodies for the target protein beta amyloid was diluted into PBS buffer, added to each well and incubated for 1 hr at room temperature. Subsequently, the pin array was washed three times for 10 mins each with 10 mM PBS containing 0.05% Tween-20. Anti-rabbit horse-radish peroxidase conjugate secondary antibodies was diluted into PBS buffer, added to each well and incubated for 1 hr at room temperature. The pin array was washed three times for 10 mins each with 10 mM PBS containing 0.05% Tween-20. A chromogenic substrate of horse-radish peroxidase 3,3′,5,5′-Tetramethylbenzidine (TMB) (Pharmingen, San Diego, Calif.) which is colorless was added, and the reaction was carried out for 45 min.
The reaction was stopped by adding 6N sulfuric acid, which changes the color from blue to yellow. The absorption at 450 nm was measured by an ELISA reader (BioTek, Winooski, Vt.).
The pin array was regenerated by sonication in a water bath (VWR Aquasonic, West Chester, Pa.) with 100 mM PBS, containing 1% Sodium dodecyl sulfate (SDS) and 0.1% 2-Mercaptoethanol@60° C. for 10 mins. Next, the pin array was rinsed three times in deionized water, preheated to 60° C. for 30 secs each time, and shaken in water preheated at 60° C. for 30 min. The pin array was then washed with methanol at 60° C. for 15 secs and air-dried and stored @−20° C. for future use. Each target protein was assayed 2-5 times against the human αB crystallin protein pin array peptides to verify the reproducibility of the results. Peptides numbered 5, 7, 8, 9, 13, 19, 22, 23, 24, 27, 35, 38, 45, 51, 52, 56, 57, 61, 66, 71, 72, and 79 in Table 2 reproducibly tested positive in the protein pin assay.

human γD crystallin = target: T1, human γD crystallin (Homo sapiens, UniProt P07320); assay: αB crystallin protein pin array with γD crystallin; assay type: binding; details: unheated γD crystallin; similar maxima pre-heated 45° C.
T1 construct: made in house
T1 sequence (P07320 1-174): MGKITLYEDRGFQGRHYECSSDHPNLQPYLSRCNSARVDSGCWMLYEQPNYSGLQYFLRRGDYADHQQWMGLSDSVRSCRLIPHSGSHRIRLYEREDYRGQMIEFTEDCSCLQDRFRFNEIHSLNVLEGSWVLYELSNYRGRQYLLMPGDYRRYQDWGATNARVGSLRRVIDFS
From the text: (§1) Synthesis of Pins, binding and detection of peptides binding to ligand proteins. The αB crystallin protein pin array was used to measure the interaction between peptides and chaperone target proteins including bovine βH crystallin, human γD crystallin, equine alcohol dehydrogenase (ADH) and porcine citrate synthase (CS) as described (FIG. 12). Ghosh and Clark, Protein Sci 14: 684-95, 2005.
(§2) Refer to the methods section for detailed protocols. The absorbance corresponding to the blue coloration in each well was measured at λ=450 nm and plotted against the amino acid sequence of the corresponding peptide in that well (FIGS. 13 and 14). Wells containing peptides that have strong interactions with target proteins are dark blue and wells containing peptides that have weak or no interaction with target proteins are light blue or clear.
(§3) The purity of the target proteins used in the pin array assays, bovine βH crystallin, human γD crystallin, equine alcohol dehydrogenase (ADH) and porcine citrate synthase (CS) were determined to be >90% by SDS-PAGE. In addition, primary antibodies for each target protein were specific to that target protein and consequently contaminating proteins that may bind to the peptides will not be detected. Eighty-four sequential and overlapping peptide fragments corresponding to residues 1-175 of human αB crystallin were synthesized employing a simultaneous peptide synthesis strategy developed by Geysen, called Multipin Peptide Synthesis (Mimotopes, San Diego, Calif.). Geysen, Southeast Asian J Trop Med Public Health 21: 523-33, 1990; Chin et al., J Org Chem 62: 538-539, 1997. Peptides were immobilized on derivatized polyethylene pins arranged in a microtiter ELISA plate format. Each peptide was eight amino acids in length and consecutive peptides were offset by two amino acids. All peptides were bound covalently to the surface of the plastic pins. The first peptide was 1MDIAIHHP8 and the last peptide was 168PAVTAAPK175 for human αB crystallin.
(§4) Ghosh and Clark, Protein Sci 14: 684-95, 2005. […] The intensity of the blue color in the wells was measured at 450 nm using an ELISA plate-reader (BioTek, Winooski, Vt.). The intensity of the blue color (plotted on the X-axis) was a measure of the interaction between αB crystallin peptides (plotted on the Y-axis) and target proteins. To measure the effect of temperature on the interactions between interactive peptides and the target proteins, the target proteins were heated in a water-bath at 45° C. for fifteen minutes prior to use. Pin arrays are unable to differentiate between monomers, dimers or oligomers of target proteins that exist in solution. Instead, pin arrays are very sensitive detectors of interactions between individual peptides and the entire population (monomers, dimers or oligomers) of specific target proteins that may exist in solution under specific conditions. Each target protein was assayed two to five times. A single pin array was used for all experiments and no change in interactions was observed after more than thirty repetitions. The last three peptides of the protein pin array, 163REEKPAVT170, 165EKPAVTAA172, 167PAVTAAPK174, correspond to the epitope (163REEKPAVTAAPKK175) recognized by the primary antibody for human αB crystallin. A positive reaction is observed for these three peptides in the absence of human αB crystallin as the ligand due to direct binding of the anti-human αB crystallin antibody to these three peptides. The loss of efficiency for the pin array was measured using this assay. The loss of efficiency for the pin array was determined to be <5% by after more than 30 assays.
When βH crystallin was replaced with γD crystallin, a native protein constituent of lens cytoplasm from the same gene family as the β crystallins, as the ligand in the pin array, twelve interactive sequences were identified (FIG. 14: striped bars). […]

bovine βH crystallin = assay: αB crystallin protein pin array with βH crystallin; assay type: binding; details: unheated βH crystallin, 23° C.; similar maxima pre-heated 45° C.
From the text: as §1, §2, §3, §4
Protein pin arrays enabled the identification of interactive sequences necessary for the chaperone activity of human αB crystallin. Interactions between immobilized 8-mer human αB crystallin peptides and unheated and pre-heated βH crystallin, a natural protein constitute of lens cells, were measured as absorbances at λ=450 nm at 23° C. […]

Sequence | Hydrophobicity [1] | other results
APSWFDTG [Peptide 29] | 0.56 | –
DEHGFISR [Peptide 55] | 0.16 | –
DPLTITSS [Peptide 65] | 0.49 | –
DQFFGEHL [Peptide 13] | 0.47 | binding of beta amyloid in the protein pin assay (beta amyloid): positive; absorbance at 450 nm, interaction with γD crystallin (human γD crystallin): maximum absorbances
DRFSVNLD [Peptide 37] | 0.19 | –
DVDPLTIT [Peptide 64] | 0.55 | –
EELKVKVL [Peptide 44] | 0.32 | –
EERQDEHG [Peptide 53] | −0.47 | –
EFHRKYRI [Peptide 59] | 0.13 | absorbance at 450 nm, interaction with γD crystallin (human γD crystallin): maximum absorbances
EKDRFSVN [Peptide 36] | −0.13 | –
EKPAVTAA [Peptide 83] | 0.19 | –
EMRLEKDR [Peptide 34] | −0.27 | –
EVHGKHEE [Peptide 50] | −0.18 | –
FDTGLSEM [Peptide 31] | 0.44 | –
FHSPSRLF [Peptide 9] | 0.63 | binding of beta amyloid in the protein pin assay (beta amyloid): positive
GDVIEVHG [Peptide 48] | 0.37 | –
GEHLLESD [Peptide 15] | 0.18 | –
GPRKQVSG [Peptide 74] | −0.04 | –
HESPEELK [Peptide 42] | 0.25 | –
HGFISREF [Peptide 56] | 0.48 | binding of beta amyloid in the protein pin assay (beta amyloid): positive; absorbance at 450 nm, interaction with γD crystallin (human γD crystallin): maximum absorbances
HGKHEERQ [Peptide 51] | −0.41 | binding of beta amyloid in the protein pin assay (beta amyloid): positive
HLLESDLF [Peptide 16] | 0.7 | –

Sequence | Hydrophobicity [1] | other results
HPWIRRPF [Peptide 4] | 0.67 | –
HRKYRIPA [Peptide 60] | 0.11 | –
IAIHHPWI [Peptide 2] | 1.12 | absorbance at 450 nm, interaction with γD crystallin (human γD crystallin): maximum absorbances
IHHPWIRR [Peptide 3] | 0.6 | –
IPITREEK [Peptide 80] | 0.16 | –
ITREEKPA [Peptide 81] | −0.02 | –
ITSSLSSD [Peptide 67] | 0.35 | –
KHEERQDE [Peptide 52] | −0.6 | binding of beta amyloid in the protein pin assay (beta amyloid): positive
KYRIPADV [Peptide 61] | 0.28 | absorbance at 450 nm, interaction with βH crystallin (bovine βH crystallin): Maximum absorbances; binding of beta amyloid in the protein pin assay (beta amyloid): positive
LDVKHFSP [Peptide 40] | 0.47 | –
LESDLFPT (also: covalently bound to polyethylene pin) [Peptide 17] | 0.59 | –
LFDQFFGE [Peptide 12] | 0.68 | –
LKVKVLGD [Peptide 45] | 0.39 | absorbance at 450 nm, interaction with βH crystallin (bovine βH crystallin): Maximum absorbances; binding of beta amyloid in the protein pin assay (beta amyloid): positive
LSEMRLEK [Peptide 33] | 0.16 | –
LSSDGVLT [Peptide 69] | 0.5 | –
MDIAIHHP [Peptide 1] | 0.67 | –
PADVDPLT [Peptide 63] | 0.42 | –
PAVTAAPK [Peptide 84] | 0.36 | –
PERTIPIT [Peptide 78] | 0.49 | –
PPSFLRAP [Peptide 26] | 0.61 | absorbance at 450 nm, interaction with βH crystallin (bovine βH crystallin): Maximum absorbances
PTSTSLSP [Peptide 20] | 0.44 | –
QVSGPERT [Peptide 76] | 0.04 | –

Sequence | Hydrophobicity [1] | other results
REEKPAVT [Peptide 82] | −0.1 | –
RIPADVDP [Peptide 62] | 0.28 | –
RKQVSGPE [Peptide 75] | −0.12 | –
RQDEHGFI [Peptide 54] | 0.14 | –
RRPFFPFH [Peptide 6] | 0.62 | –
SDGVLTVN [Peptide 70] | 0.37 | –
SDLFPTST [Peptide 18] | 0.49 | –
SGPERTIP [Peptide 77] | 0.23 | –
SPEELKVK [Peptide 43] | 0.04 | –
SPFYLRPP [Peptide 23] | 0.7 | absorbance at 450 nm, interaction with βH crystallin (bovine βH crystallin): Maximum absorbances; binding of beta amyloid in the protein pin assay (beta amyloid): positive
SPSRLFDQ [Peptide 10] | 0.27 | –
SRLFDQFF [Peptide 11] | 0.63 | –
SSLSSDGV [Peptide 68] | 0.25 | –
STSLSPFY [Peptide 21] | 0.66 | –
SWFDTGLS [Peptide 30] | 0.64 | –
TGLSEMRL [Peptide 32] | 0.4 | –
VIEVHGKH [Peptide 49] | 0.36 | –
VKHFSPEE [Peptide 41] | 0.19 | –
VKVLGDVI [Peptide 46] | 0.68 | –
VLGDVIEV [Peptide 47] | 0.72 | –
VNGPRKQV [Peptide 73] | 0.04 | –
VNLDVKHF [Peptide 39] | 0.46 | –
